# Numbering of substitutions follows the chain as printed. Numbers in names are those of the source. Where no end group is shown, it is not given here.
# T1: huCCR8 (1-12)-Nb (human, not fully specified (C-terminus); also: fused to nanobody, biotinylated in Fab assay)
# T1 construct: Expressed in human cells; also called CCR8 peptide-Nb fusion; not shown: nanobody (Nb) fusion partner, any linker or tag to it, and the biotin site
# T1 peptide: MDYTLDLSVTTV
# T2: huCCR8 (1-25)[C25S]-Nb (human, not fully specified; biotinylated for the Fab assay, non-biotinylated for the mAb assay ; biotinylated when captured on streptavidin sensors (Fab assay); non-biotinylated in the mAb assay)
# T2 construct: Expressed in human cells; also called CCR8 peptide-Nb fusion; not shown: nanobody (Nb) fusion partner, any linker or tag to it, and the biotin site
# T2 peptide: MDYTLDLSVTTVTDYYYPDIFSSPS
# B1: Antibody 6.1 IgG1 (VH: S67R_A114S_I134P, VL: F71L)_huIgG1z mAb (antibody, V domains shown)
# VH: QVQLVESGGGVVQPGRSLRLSCEASGFTFSSYVMHWVRQAPGKGLEWVSVISYDGSRQYYTDSVKGRFTISRDNSKNTLNLQMNSLRAEDTAVYYCVRGRLATSPLFDYWGQGTLVTVSS
# VL: DILMTQTPLSLSVTPGQPASISCKSSQSLLYSDGKTYLFWYLQRPGQPPQLLIYEVSNRLSGVPDRFSGSGSGTDFTLKISRVEAEDVGIYYCMQSIKLPLTFGGGTKVEIKR
# B2: Antibody 6.2 IgG1 (VH: S67R_Q68A_L135K_F136L, VL: S109T_I110L)_huIgG1z mAb (antibody, V domains shown)
# VH: B1 VH with Q58A, S104A, P105I, L106K, F107L
# VL: B1 VL with L60F, S96T, I97L
# B3: Antibody 5.4 IgG1 (VH: G40A, VL: S57Y_E58L_V67T_F103V)_huIgG1z mAb (antibody, V domains shown)
# VH: QVQLVESGGGVVQPGRSLRLSCAASGFTFSSYAMHWVRQAPGKGLEWVAVISYDGSNKYYADSVKGRFTISRDNSKNTLYLQMNSLRAEDTAVYYCARGRYFDWFLFDYWGQGTLVTVSS
# VL: B1 VL with I2T, L3V, Y31H, R44K, E55L, V56T, L60F, I90V, I97L, K98R
# B4: Antibody 5.0 IgG1 (antibody, V domains shown)
# VH: B3 VH with A33G
# VL: B1 VL with I2T, L3V, Y31H, R44K, Y54S, L60F, I90F, I97L, K98R
# B5: Antibody 3.0 IgG1 (antibody, V domains shown)
# VH: EVQLVESGGGLVKPGGSLRLSCAASGFIFSNAWMSWVRQAPGKGLEWVARIKRRTDGGTTDYAAPVKDRFTISRDDSKNTLFLQMNSLKTEDTAVYYCTTVTMVRGVIADYWGQGTLVTVSS
# VL: EIVLTQSPGTLSLSPGERATLSCRASQSVSSGSLAWYQQKLGQAPRLLIYGASSRATGIPDRFSGSGSGTDFTLTISSLEPEDFAVYYCQQYGSSRTFGQGTKVELKR
# B6: Antibody 4.0 IgG1 (antibody, V domains shown)
# VH: B5 VH with A49G, R54K, D68G, F82Y, Q84L, T90I, T100V, M103L, V107I, A109F
# VL: B5 VL with R18S, A25V, G32S, S33Q, L41P, S78R, S94N, L106I
# B7: huCCR8_44379 (VH: D61S, VL: N67Q_M99G_W109F_S111A)_huIgG1z (mAb) (antibody, V domains shown)
# VH: QVQLVESGGGVVQPGRSLRLSCAASGFTFSNYGFHWVRQTPGKGLEWVAVISYSGSNRYYADSVKGRFTISRDNSKNTLYLQMNSLRGEDTALYYCARVYYGSGTYYKNRYYYGMDVWGQGTTVTVSS
# VL: SYELTQPPSVSVALGQTARITCGGHNIGSKGVHWYQQKPGQAPVLVIYRQSNRPSGIPERFSGSNSGNTATLTISGTQAGDEADYYCQAFDAGTVVFGGGTQLTVLG
# notes: Engineered from scFv MPK20299-A4; afucosylated IgG1, HC without C-terminal lysine
# B8: huCCR8_44379 (VH: D61A_D72A, VL: N67Q_M99E_W109F_S111A)_huIgG1z (mAb) (antibody, V domains shown)
# VH: B7 VH with S54A, D62A
# VL: B7 VL with G80E
# notes: as for B7
# B9: huCCR8_44379 (VH: D72S, VL: N67A_S68A_M99G_W109F_S111A)_huIgG1z (mAb) (antibody, V domains shown)
# VH: B7 VH with S54D, D62S
# VL: B7 VL with Q50A, S51A
# notes: as for B7
# How the values were obtained:
# human CCR8 [1] = biological target: T3, human CCR8 (human, UniProt P51685 1-355); experiment: cell-based or functional assay
# human CCR8 [2] = biological target: T3, human CCR8; experiment: cell-based or functional assay; remark: listed apart in the source
# human CCR8 [3] = biological target: T3, human CCR8; experiment: cell-based or functional assay; remark: listed apart in the source
# human CCR8 [4] = biological target: T3, human CCR8; experiment: cell-based or functional assay; remark: listed apart in the source
# huCCR8 (1-12)-Nb = biological target: T1, huCCR8 (1-12)-Nb; experiment: BLI (Octet), mAb on anti-huIgG Fc sensor, peptide-Nb in solution
# Description: Binding affinities (KD equilibrium dissociation constant) and rate constants (kₐ association rate constant, kd dissociation rate constant) of an Antibody 1 Fab and CCR8-binding monoclonal antibodies (mAbs) of the present invention to a CCR8 1-12 epitope (SEQ ID NO: 82)-nanobody (Nb) fusion protein were measured using an OCTET® Biolayer Interferometry system (Sartorius AG, Göttingen, Germany). The CCR8-nanobody fusion proteins were expressed in human cells. For Fab binding, biotinylated CCR8 peptide-Nb fusions were captured on streptavidin SAX biosensors to loading levels between 2 and 4 nm and then incubated with a dilution series of the soluble Fab (top 100 nM, 6-point, 1:3 serial dilution) for 300 seconds followed by 500 seconds in buffer for dissociation. For mAb binding, mAbs were captured on an anti-huIgG Fc capture biosensor to 1 to 2 nm loading level and then incubated with a dilution series of non-biotinylated CCR8 peptide-Nb fusions (top 100 nM, 6-point, 1:3 serial dilution) for 300 seconds followed by 500 seconds in buffer for dissociation.
# The OCTET® system acquires data over time (seconds) using a mechanism called Biolayer Interferometry; as proteins bind to biosensor tips, a sensitive binding signal in nm is measured by the instrument. All fiber optic tips were used once and then discarded, i.e., no regeneration. OCTET® buffer baselines, dissociation steps, and protein dilutions were made with OCTET® buffer (10 mM TRIS pH 7.5, 150 mM NaCl, 1 mM CaCl₂), 0.13% (v/v) Triton X-100 and 0.10 mg/mL BSA).
# Raw data was processed with GeneData Screener v18 SPR package which uses the same data processing as the OCTET® instrument Data Analysis software (subtract average of two reference wells per column; Align Y-axis to baseline; Interstep correction align to dissociation; and Savitzky-Golay filtering). Each Fab or mAb interaction was grouped into its own sensorgram and globally fit with a 1:1 binding model to determine the association rate constant (kₐ; units M⁻¹ sec⁻¹) and the dissociation rate constant (kd; units sec⁻¹).
# huCCR8 (1-25)[C25S]-Nb = biological target: T2, huCCR8 (1-25)[C25S]-Nb; experiment: as above
# T3 sequence (P51685 whole entry): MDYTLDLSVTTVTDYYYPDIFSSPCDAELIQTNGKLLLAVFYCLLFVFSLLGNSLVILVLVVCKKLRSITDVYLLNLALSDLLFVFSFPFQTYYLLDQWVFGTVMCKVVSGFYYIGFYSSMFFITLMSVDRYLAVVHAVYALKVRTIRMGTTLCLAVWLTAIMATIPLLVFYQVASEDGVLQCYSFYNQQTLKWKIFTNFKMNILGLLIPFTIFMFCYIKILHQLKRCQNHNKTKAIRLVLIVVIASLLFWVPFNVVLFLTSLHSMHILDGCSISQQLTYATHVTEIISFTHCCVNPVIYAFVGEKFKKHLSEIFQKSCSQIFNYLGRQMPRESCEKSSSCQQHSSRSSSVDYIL
Binder,"ADCC, Percent Non-Viable cells (EC50 pM), Donor 4 (human CCR8 [1])","ADCC, Percent Non-Viable cells (EC50 pM), Donor 5 (human CCR8 [1])","ADCC, Percent Non-Viable cells (EC50 pM), Donor 6 (human CCR8 [1])",Percent Inhibition (IC50 nM) of CCL1-dependent chemotaxis of HUT78 cells (human CCR8 [2]),"ADCC, Percent Non-Viable cells (EC50 pM), Donor 1 (human CCR8 [3])","ADCC, Percent Non-Viable cells (EC50 pM), Donor 2 (human CCR8 [3])","ADCC, Percent Non-Viable cells (EC50 pM), Donor 7 (human CCR8 [4])",Kd (huCCR8 (1-12)-Nb),koff (huCCR8 (1-12)-Nb),kon (huCCR8 (1-12)-Nb),Kd (huCCR8 (1-25)[C25S]-Nb),koff (huCCR8 (1-25)[C25S]-Nb),kon (huCCR8 (1-25)[C25S]-Nb)
B1,4.52 pM,1.05 pM,3.62 pM,–,–,–,–,–,–,–,–,–,–
B2,4.12 pM,2.04 pM,5.14 pM,–,–,–,–,–,–,–,–,–,–
B3,3.43 pM,0.889 pM,4.62 pM,–,–,–,–,–,–,–,–,–,–
B4,–,–,–,13.6 nM,< 0.256 pM,167 pM,–,–,–,–,–,–,–
B5,–,–,–,3.7 nM,< 0.256 pM,15.5 pM,–,–,–,–,–,–,–
B6,–,–,–,8.4 nM,< 0.256 pM,218 pM,–,–,–,–,–,–,–
B7,–,–,–,–,–,–,0.28 pM,8.1 nM,0.00107 s⁻¹,132000 M⁻¹ s⁻¹,7.2 nM,0.000798 s⁻¹,110000 M⁻¹ s⁻¹
B8,–,–,–,–,–,–,0.52 pM,9.5 nM,0.00134 s⁻¹,142000 M⁻¹ s⁻¹,7.8 nM,0.00114 s⁻¹,146000 M⁻¹ s⁻¹
B9,–,–,–,–,–,–,0.48 pM,9 nM,0.0011 s⁻¹,122000 M⁻¹ s⁻¹,9.8 nM,0.000975 s⁻¹,99300 M⁻¹ s⁻¹

# Reference: US20250171549A1 (Amgen, published 2025)
